Patent US20080131510

Legend:
[1] = tested on: Lys*-Ala-Gly-Leu-Leu-Cys (SEQ ID NO:32); experiment: peptide cleavage kinetics by HPLC, 10 nM activated MMP; the filing calls Km 'affinity or binding strength'
[2] = tested on: Lys*-Gly-Leu-Cys (SEQ ID NO:33); experiment: as above
[3] = tested on: Lys*-Pro-Ala-Gly-Leu-Leu-Gly-Cys (SEQ ID NO:2); experiment: as above
[4] = tested on: Lys*-Ala-Gly-Leu-Leu-Cys (SEQ ID NO:32)
[5] = tested on: Lys*-Pro-Ala-Gly-Leu-Leu-Gly-Cys (SEQ ID NO:2), pendant in PEG(8000)DA hydrogel and complexed with Pt
[6] = tested on: Lys*-Gly-Leu-Cys (SEQ ID NO:33)
[7] = tested on: Lys*-Pro-Ala-Gly-Leu-Leu-Gly-Cys (SEQ ID NO:2)

Sequence of matrix metalloprotease-9 (MMP-9), activated (chain, as listed by the source): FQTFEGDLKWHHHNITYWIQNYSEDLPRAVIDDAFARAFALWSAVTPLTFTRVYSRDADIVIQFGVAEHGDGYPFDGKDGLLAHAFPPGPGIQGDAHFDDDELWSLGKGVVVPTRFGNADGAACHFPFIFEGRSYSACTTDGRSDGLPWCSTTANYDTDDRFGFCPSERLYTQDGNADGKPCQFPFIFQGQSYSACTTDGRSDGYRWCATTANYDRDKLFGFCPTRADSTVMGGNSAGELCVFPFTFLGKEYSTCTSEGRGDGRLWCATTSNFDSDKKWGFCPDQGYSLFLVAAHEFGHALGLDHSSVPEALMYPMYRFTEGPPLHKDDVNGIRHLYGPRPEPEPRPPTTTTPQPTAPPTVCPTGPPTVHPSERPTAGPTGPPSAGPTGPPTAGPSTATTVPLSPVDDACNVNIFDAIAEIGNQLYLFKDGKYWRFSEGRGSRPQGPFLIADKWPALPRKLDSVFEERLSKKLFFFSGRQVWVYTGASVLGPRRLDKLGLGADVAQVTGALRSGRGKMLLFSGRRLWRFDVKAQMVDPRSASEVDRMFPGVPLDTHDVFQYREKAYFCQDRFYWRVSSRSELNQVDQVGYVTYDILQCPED

matrix metalloprotease-9 (MMP-9), activated
Km [1]: 160 µM
Km [2]: 600 µM
Km [3]: 400 µM
Kcat/Km [4]: 252 M⁻¹ s⁻¹
Vmax [4]: 9.9e-10 M/s
kcat [4]: 0.04 s⁻¹
release of cleaved fragment from the PEG(8000)DA hydrogels [5]: the addition of MMP-2 and MMP-9 showed a significantly higher release of cleaved fragment from the PEG(8000)DA hydrogels compared to the control
Kcat/Km [6]: 358 M⁻¹ s⁻¹
Vmax [6]: 5.3e-09 M/s
kcat [6]: 0.21 s⁻¹
Kcat/Km [7]: 24000 M⁻¹ s⁻¹
Vmax [7]: 2.4e-07 M/s
kcat [7]: 9.6 s⁻¹
